Experimental data: patent US20100254993A1 (Novartis, published 2010)

T1: recombinant human interleukin-4 (human, UniProt P05112 25-153)
T1 construct: Recombinant human IL-4 applied in solution over antibody captured by anti-human IgG (BIAcore); also called rhIL-4; human IL-4
T1 sequence (looked up): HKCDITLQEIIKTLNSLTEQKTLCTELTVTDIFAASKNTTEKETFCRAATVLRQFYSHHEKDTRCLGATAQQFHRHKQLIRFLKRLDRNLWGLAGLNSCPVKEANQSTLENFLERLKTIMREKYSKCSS


How the values were obtained:
[1] = target: T1, recombinant human interleukin-4; assay: SPR (BIAcore 2000), mAb captured on anti-human IgG CM-5 chip, rhIL-4 as analyte
Procedure: Affinity measurements of human mAbs of the present invention are carried on a BIAcore™ 2000 instrument. […] A subsequent application of rhIL-4 results in a further change of the refractory properties, which allows determination of the association rate (Kₒₙ, on rate) as well as the dissociation rate (Koff, off rate) and the […] of these two, the affinity (Kd, dissociation constant, given in pM), according to the BIAevaluation 3.0 software.

[2] = target: T1, recombinant human interleukin-4; assay: cell-based or functional assay

| Binder | Kd [1] [nM] | BAF cell proliferation IC50 [2] [nM] | IL-4 induced CD23 IC50 [2] [nM] | IL-4 induced IgE IC50 [2] [nM] |
| --- | --- | --- | --- | --- |
| Example 4 antibody comprising SEQ ID NO:25 and SEQ ID NO:26 (antibody, human IgG1, V domains shown, also called Ex. 4) VH: QVQLVQSGAEVKKPGSSVKVSCKASGDTFSSYAISWVRQAPGQGFEWMGGIIPVIGTVNYEERFQDRVTITADNSTSTAYMELTSLRSEDTAVYFCGREEGFLDYWGQGTLVTVSS VL: AIQLTQSPSSLSASVGDRVTITCRASQGISSALAWYQQKPGKAPKLLIYDASSLESGVPSRFSGSGSGTDFTLTISSLQPEDFATYYCQQFNSYPLLTFGGGTKVEIKR | 0.066 | 0.688 | 0.848 | 7.57 |
| Example 3 antibody comprising SEQ ID NO:17 and SEQ ID NO:18 (antibody, human IgG1, V domains shown, also called Ex. 3) VH: QVQLVESGGGMVQPGRSLRLSCAASGFTLSSYGMHWVRQAPGKGLEWVTVIWYDGNNQYYADSVKGRFTISRDNSKNTLYLQMNSLRAEDTAVYYCAREGSWSPDIFDIWGQGTMVTVSS VL: AIQLTQSPSSLSASVGDRVTITCRASQGISSYLAWYQQKPGKAPKLLIYDASSLESGVPSRFSGSGSGTDFTLTISSLQPEDFATYYCQQFNSYPITFGQGTRLEIKR | 0.089 | 0.084 | 0.873 | 7.81 |
| Example 5 antibody comprising SEQ ID NO:33 and SEQ ID NO:34 (antibody, human IgG1, V domains shown, also called Ex. 5) VH: QVQLVESGGGVVQPGRSLRLSCAASGFTFSCCGMHWVRQAPGKGLEWVAVIWYDGSNKYYADSVKGRFTISRDTSKNTLYLQMNSLRAEDTAVYYCATDSSGSFYEYFQHWGQGTLVTVSS VL: AIQLTQSPSSLSASVGDRVTITCRASQGINSALAWYQQKPGKAPKLLIYDASSLESGVPSRFSGSGSGTDFTLTISSLQPEDFATYYCQQFNSYPYTFGQGTKLEIKR | 0.084 | 0.218 | 2.83 | 9.94 |
| Example 1 antibody comprising SEQ ID NO:1 and SEQ ID NO:2 (human IL-4 specific monoclonal antibody) (antibody, human IgG1, V domains shown, also called Ex. 1; mAb as defined by CDRs as described in claim 2a)) VH: QVQLVESGGGVVQPGRSLRLSCAASGFTFSSYAMHWVRQAPGKGLEWVTFIWDDGSFKYYAESVKGRFTISRDNSKNTLYLQMNSLRAEDTAVYYCAREGSWSPDIFDIWGQGTMVTVSS VL: AIQLTQSPSSLSASVGDRVTITCRASQGISRALAWYQQKPGKAPKLLIYDASSLESGVPSRFSGSGSGTDFTLTISSLQPEDFATYYCQQFNSYPITFGQGTRLEIKR | 0.043 | 0.03 | 0.334 | 2.81 |
| Example 2 antibody comprising SEQ ID NO:9 and SEQ ID NO:10 (antibody, human IgG1, V domains shown, also called Ex. 2) VH: QVQLVESGGGVVQPGRSLRLSCAASGFTLSSFGMHWVRQAPGKGLEWVAVIWYDGSNEYYADSVKGRFTTSRDNSKNTLYLQMNSLRAEDTAVYYCAREGSWSPDIFDIWGQGTMVTVSS VL: AIQLTQSPSSLSASVGDRVTITCRTSQGIRSALAWYQQNPGKAPKLLIYDASSLESGVPSRFSGSGSGTDFTLTISSLQPEDFATYYCQQFNSYPVTFGQGTRLEIKR | 0.059 | 0.05 | 0.463 | 5.34 |
